Source: patent US20030211979A1, “FAP-activated anti-tumor compounds” (Boehringer Ingelheim Pharma GmbH & Co. KG, priority 2002, published 2003)

Tested on: not listed separately
Assay: Solubility test in a phosphate buffer
Format: physicochemical
Details: not given
Excerpt: The solubilities of the compounds of formula
in a phosphate buffer have been compared.
`COc1cccc2c1C(=O)c1c(O)c3c(c(O)c1C2=O)C[C@@](O)(C(=O)CO)C[C@@H]3OC1CC(NC(=O)[C@@H]2CCCN2C(=O)CNC(=O)[C@H](C)NC(=O)[C@@H]2CCCN2C(=O)Cc2ccccc2)C(O)C(C)O1` (some centres unmarked) [B, reference compound] gave a solubility of under 2000 µg/mL.

Target: T1, FAP (Homo sapiens, UniProt Q12884)
T1 construct: expressed in transfected cells; host or cells: 293 cells stably transfected with FAP; cell extract
T1 sequence (Q12884 1-760): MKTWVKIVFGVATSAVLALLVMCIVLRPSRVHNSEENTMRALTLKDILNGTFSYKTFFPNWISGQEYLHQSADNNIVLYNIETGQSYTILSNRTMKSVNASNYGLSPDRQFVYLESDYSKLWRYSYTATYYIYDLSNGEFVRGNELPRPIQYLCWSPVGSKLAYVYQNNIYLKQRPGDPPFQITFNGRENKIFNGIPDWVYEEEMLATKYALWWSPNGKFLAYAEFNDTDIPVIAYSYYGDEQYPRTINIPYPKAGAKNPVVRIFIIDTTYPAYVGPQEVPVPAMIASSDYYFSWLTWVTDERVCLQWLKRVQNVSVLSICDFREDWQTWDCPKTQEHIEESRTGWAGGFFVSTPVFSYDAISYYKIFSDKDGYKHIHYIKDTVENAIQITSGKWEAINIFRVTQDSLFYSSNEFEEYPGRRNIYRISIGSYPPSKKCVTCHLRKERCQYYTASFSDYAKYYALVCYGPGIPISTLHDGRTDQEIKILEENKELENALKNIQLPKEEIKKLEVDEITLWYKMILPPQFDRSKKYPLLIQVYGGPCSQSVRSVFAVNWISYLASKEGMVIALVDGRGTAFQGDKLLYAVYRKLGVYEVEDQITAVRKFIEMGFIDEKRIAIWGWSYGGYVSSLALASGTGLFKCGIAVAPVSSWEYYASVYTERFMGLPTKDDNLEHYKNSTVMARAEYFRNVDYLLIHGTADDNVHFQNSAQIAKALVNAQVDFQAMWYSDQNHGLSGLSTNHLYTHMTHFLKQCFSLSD
Assay: Assay for cleavage of MNA substrates by FAP
Format: biochemical
Details: 1 ng FAP enzyme (extract of FAP-transfected 293 cells), 20 μl 2.5 mM substrate, 1 hour at room temperature, fluorescence Ex 355/Em 405 nm, FAP-negative 293 control subtracted
Protocol: Assay for Cleavage of MNA Substrates by FAP: Buffer A: 100 mM Tris HCl pH 7.8, 100 mM NaCl Cell extract from 293 cells stably transfected with FAP prepared as described (see Park, et al., Fibroblast Activation Protein, a Dual Specificity Serine Protease expressed in human tumor stromal fibroblasts. (1999) J. Biol. Chem. 36505-12.). A similar extract was also prepared from parental 293 control cells without FAP. The FAP concentration in the FAP-transfected cell extract was estimated by immunoassay and 1 ng enzyme (diluted in buffer A) was used per assay. FAP-negative 293 control cell extract was used at the same dilution (also in buffer A) as a negative control. Substrate was initially dissolved in dimethylformamide at a concentration of 200 mM and diluted in buffer A to a final concentration of 2.5 mM. A few substrates were not soluble at this concentration and had to be diluted further. Assay Conditions: 10 μl 10% DMSO in buffer A 70 μl diluted FAP cell extract containing 1 ng FAP enzyme (OR control 293 cell extract without FAP) 20 μl 2.5 mM substrate Mix, incubate at room temperature for 1 hour, and measure fluorescence in Fluorostar fluorimeter at the following wavelengths: MNA conjugates: Excitation: 355 nm, Emission: 405 nm. The fluorescence measured in the samples treated with control 293 control cell extracts without FAP is subtracted from the values measured in the samples treated with 1 ng FAP enzyme.
With “[2-(2-Carboxymethyl-phenyl)-acetyl]-Pro-Ala-Gly-Pro-MNA (PAGP; N-terminal 2-carboxymethylphenylacetyl; C-terminal MNA; printed: Pro-Ala-Gly-Pro-)” the Cleavage was 0.94 µM. In the case of “[2-(3-Carboxymethyl-phenyl)-acetyl]-N-MeIle-Ala-Gly-Pro-MNA (IAGP; N-terminal 3-carboxymethylphenylacetyl, N-methyl; C-terminal MNA; printed: Ile-Ala-Gly-Pro-)”, the Cleavage is reported as 15.36 µM. With “[2-(3-Carboxymethyl-phenyl)-acetyl]-N-MeLeu-Ala-Gly-Pro-MNA (LAGP; N-terminal 3-carboxymethylphenylacetyl, N-methyl; C-terminal MNA; printed: Leu-Ala-Gly-Pro-)” the Cleavage was 12.00 µM. In the case of “[2-(3-Carboxymethyl-phenyl)-acetyl]-N-MeVal-Ala-Gly-Pro-MNA (VAGP; N-terminal 3-carboxymethylphenylacetyl, N-methyl; C-terminal MNA; printed: Val-Ala-Gly-Pro-)”, the Cleavage is reported as 9.52 µM. “[2-(3-Carboxymethyl-phenyl)-acetyl]-Pro-Ala-Gly-Pro-MNA (PAGP; N-terminal 3-carboxymethylphenylacetyl; C-terminal MNA; printed: Pro-Ala-Gly-Pro-)” gave a Cleavage of 2.80 µM. For “[2-(4-Carboxymethyl-phenyl)-acetyl]-Aze-Ala-Gly-Pro-MNA”, the Cleavage was 9.54 µM. Compound “[2-(4-Carboxymethyl-phenyl)-acetyl]-N-MeIle-Ala-Gly-Pro-MNA (IAGP; N-terminal 4-carboxymethylphenylacetyl, N-methyl; C-terminal MNA; printed: Ile-Ala-Gly-Pro-)” has a Cleavage of 16.36 µM. Compound “[2-(4-Carboxymethyl-phenyl)-acetyl]-N-MeLeu-Ala-Gly-Pro-MNA (LAGP; N-terminal 4-carboxymethylphenylacetyl, N-methyl; C-terminal MNA; printed: Leu-Ala-Gly-Pro-)” has a Cleavage of 13.97 µM. “[2-(4-Carboxymethyl-phenyl)-acetyl]-N-MeVal-Ala-Gly-Pro-MNA (VAGP; N-terminal 4-carboxymethylphenylacetyl, N-methyl; C-terminal MNA; printed: Val-Ala-Gly-Pro-)” showed a Cleavage of 13.39 µM. “[2-(4-Carboxymethyl-phenyl)-acetyl]-Pro-Ala-Gly-Pro-MNA (PAGP; N-terminal 4-carboxymethylphenylacetyl; C-terminal MNA; printed: Pro-Ala-Gly-Pro-)” gave a Cleavage of 7.25 µM.
